Consider one molecule from PMC3832974.

This data set addresses human alpha-thrombin (Homo sapiens, UniProt P00734;P00734 328-363;364-622). Briefly: dot blot immunoenzymatic assay on cloth; 13.5 nM thrombin; UV cross-linked; PBS (0.01 M phosphate pH 7.4, 0.85% NaCl), 13.5 nM thrombin, 20 min, room temperature; aptamers (10 uM) spotted in 0.1 M Tris-HCl pH 8.0, 0.01 M MgCl2, 0.15 M N.

B1: Apt 4 (ssDNA)
DNA: AGATGCCTGTCGAGCATGCTCTTTGGAGACAGTCCGTGGTAGGGCAGGTTGGGGTGACTTCGTGGAAGAAGCGAGACGGTGTAGCTAAACTGCTTTGTCGACGGG
In the case of B1, the binding result is recorded as “binds”.
